In US20080076717A1:

Molecular target: SPR-8: ASARM-PO4 biotin
Assay: SPR (Biacore 3000): biotinylated ASARM-PO4 captured on neutravidin, PHEX as analyte

Kd: 168 nM
Substance: PHEX (free soluble-PHEX analyte) (from UniProt P78562 46-749) (enzyme)
